Measured values from PMC7550751, “Application of Force to a Syndecan-4 Containing Complex With Thy-1–αVβ3 Integrin Accelerates Neurite Retraction” (Frontiers in Molecular Biosciences, 2020).

Tests used:
[1] = target: Commercially purified human Syndecan (ectodomain)-4-Fc (UniProt P31431); assay: optical tweezers (miniTweezers) force-ramp adhesion frequency assay; details: loading rate 10 pN/s; Hepes buffer (10 mM Hepes, pH 7.4) containing 100 mM NaCl and 1 mM MgCl2 at 25°C; parent: est. 0.79; read off a plot
Thy-1-Fc wild type = target: T1, Thy-1-Fc wild type (UniProt P01831 20-131); assay: optical tweezers force spectroscopy (constant-force bond lifetime assay); miniTweezers; Thy-1-Fc on the 2.1 μm bead held by a micropipette; αVβ3-Fc, Syndecan-4-Fc or both on the 3.1 μm trapped bead (controls with TRAIL-R2-Fc added); constant forces 10, 20, 30, 40 and 50 pN; lifetimes fitted to the Bell model for values at zero force; 10 mM Hepes pH 7.4, 100 mM NaCl, 1 mM MgCl2, 25°C; details: both partners purified
T1 construct: In the functional rows m1 stands for Thy-1 on the surface of CAD neuronal cells; also called Thy-1(RLD)-Fc; CD90; source: purified; obtained as previously reported (Schneider, 2000; Leyton et al., 2001)
T1 sequence (looked up): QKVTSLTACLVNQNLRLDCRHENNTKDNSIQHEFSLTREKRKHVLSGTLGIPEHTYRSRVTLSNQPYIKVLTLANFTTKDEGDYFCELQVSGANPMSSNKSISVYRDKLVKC

[2] = target: T2, Commercially purified human Syndecan (ectodomain)-4-Fc, P31431; assay: optical tweezers (miniTweezers) force-ramp adhesion frequency assay; details: chain shown with the change; loading rate 10 pN/s; Hepes buffer (10 mM Hepes, pH 7.4) containing 100 mM NaCl and 1 mM MgCl2 at 25°C; parent: est. 0.79; read off a plot
T2 chain: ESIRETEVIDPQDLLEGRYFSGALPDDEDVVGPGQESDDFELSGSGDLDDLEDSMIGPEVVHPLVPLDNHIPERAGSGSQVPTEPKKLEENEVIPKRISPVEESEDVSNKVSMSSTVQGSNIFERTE

Molecule	bond lifetime at zero force (τ0) (Thy-1-Fc wild type) [s]	also measured
Thy-1-Fc wild type (from UniProt P01831) AEAAA	–	other: adhesion frequency [1]: 0.4
Commercially purified human Syndecan (ectodomain)-4-Fc (Fc fusion, UniProt P31431 19-145, looked up, Syndecan-4, human, ectodomain; Heparan sulfate proteoglycan; also called Syndecan-4-Fc; Synd-4-Fc) ESIRETEVIDPQDLLEGRYFSGALPDDEDVVGPGQESDDFELSGSGDLDDLEDSMIGPEVVHPLVPLDNHIPERAGSGSQVPTEPKKLEENEVIPKRISPVEESEDVSNKVSMSSTVQGSNIFERTE	3.06 ± 0.22	–
Thy-1-Fc wild type, P01831 RLE (protein) QKVTSLTACLVNQNLRLECRHENNTKDNSIQHEFSLTREKRKHVLSGTLGIPEHTYRSRVTLSNQPYIKVLTLANFTTKDEGDYFCELQVSGANPMSSNKSISVYRDKLVKC	–	other: adhesion frequency [2]: 0.81
Recombinant αVβ3-Fc integrin (Fc fusion, integrin αV, ectodomain; integrin β3, ectodomain; Construct: Burgos-Bravo et al., 2018; also called αVβ3 integrin; source: HEK293T, transiently transfected, secreted into serum-free medium; purified as published (Burgos-Bravo et al., 2018) for optical tweezers; used as medium in the neurite retraction assay) chain 1: FNLDVDSPAEYSGPEGSYFGFAVDFFVPSASSRMFLLVGAPKANTTQPGIVEGGQVLKCDWSSTRRCQPIEFDATGNRDYAKDDPLEFKSHQWFGASVRSKQDKILACAPLYHWRTEMKQEREPVGTCFLQDGTKTVEYAPCRSQDIDADGQGFCQGGFSIDFTKADRVLLGGPGSFYWQGQLISDQVAEIVSKYDPNVYSIKYNNQLATRTAQAIFDDSYLGYSVAVGDFNGDGIDDFVSGVPRAARTLGMVYIYDGKNMSSLYNFTGEQMAAYFGFSVAATDINGDDYADVFIGAPLFMDRGSDGKLQEVGQVSVSLQRASGDFQTTKLNGFEVFARFGSAIAPLGDLDQDGFNDIAIAAPYGGEDKKGIVYIFNGRSTGLNAVPSQILEGQWAARSMPPSFGYSMKGATDIDKNGYPDLIVGAFGVDRAILYRARPVITVNAGLEVYPSILNQDNKTCSLPGTALKVSCFNVRFCLKADGKGVLPRKLNFQVELLLDKLKQKGAIRRALFLYSRSPSHSKNMTISRGGLMQCEELIAYLRDESEFRDKLTPITIFMEYRLDYRTAADTTGLQPILNQFTPANISRQAHILLDCGEDNVCKPKLEVSVDSDQKKIYIGDDNPLTLIVKAQNQGEGAYEAELIVSIPLQADFIGVVRNNEALARLSCAFKTENQTRQVVCDLGNPMKAGTQLLAGLRFSVHQQSEMDTSVKFDLQIQSSNLFDKVSPVVSHKVDLAVLAAVEIRGVSSPDHVFLPIPNWEHKENPETEEDVGPVVQHIYELRNNGPSSFSKAMLHLQWPYKYNNNTLLYILHYDIDGPMNCTSDMEINPLRIKISSLQTTEKNDTVAGQGERDHLITKRDLALSEGDIHTLGCGVAQCLKIVCQVGRLDRGKSAILYVKSLLWTETFMNKENQNHSYSLKSSASFNVIEFPYKNLPIEDITNSTLVTTNVTWGIQPAPMPV chain 2: GPNICTTRGVSSCQQCLAVSPMCAWCSDEALPLGSPRCDLKENLLKDNCAPESIEFPVSEARVLEDRPLSDKGSGDSSQVTQVSPQRIALRLRPDDSKNFSIQVRQVEDYPVDIYYLMDLSYSMKDDLWSIQNLGTKLATQMRKLTSNLRIGFGAFVDKPVSPYMYISPPEALENPCYDMKTTCLPMFGYKHVLTLTDQVTRFNEEVKKQSVSRNRDAPEGGFDAIMQATVCDEKIGWRNDASHLLVFTTDAKTHIALDGRLAGIVQPNDGQCHVGSDNHYSASTTMDYPSLGLMTEKLSQKNINLIFAVTENVVNLYQNYSELIPGTTVGVLSMDSSNVLQLIVDAYGKIRSKVELEVRDLPEELSLSFNATCLNNEVIPGLKSCMGLKIGDTVSFSIEAKVRGCPQEKEKSFTIKPVGFKDSLIVQVTFDCDCACQAQAEPNSHRCNNGNGTFECGVCRCGPGWLGSQCECSEEDYRPSQQDECSPREGQPVCSQRGECLCGQCVCHSSDFGKITGKYCECDDFSCVRYKGEMCSGHGQCSCGDCLCDSDWTGYYCNCTTRTDTCMSSNGLLCSGRGKCECGSCVCIQPGSYGDTCEKCPTCPDACTFKKECVECKKFDRGALHDENTCNRYCRDEIESVKELKDTGKDAVNCTYKNEDDCVVRFQYYEDSSGKSILYVVEEPECPKGPD	6.79 ± 1.49	–
αVβ3-Fc + Syndecan-4-Fc (both on one bead) (complex, integrin αV, ectodomain, as in m5; integrin β3, ectodomain, as in m5; Syndecan-4, human, ectodomain, as in m6; Not a complex formed beforehand: m5 and m6 were put together on bead 2 and met Thy-1-Fc on bead 1; also called αVβ3 integrin + Syndecan-4; source: αVβ3-Fc: HEK293T, purified; Syndecan-4-Fc: commercially purified; both attached to one protein G-coated bead; copies: + +) chain 1: FNLDVDSPAEYSGPEGSYFGFAVDFFVPSASSRMFLLVGAPKANTTQPGIVEGGQVLKCDWSSTRRCQPIEFDATGNRDYAKDDPLEFKSHQWFGASVRSKQDKILACAPLYHWRTEMKQEREPVGTCFLQDGTKTVEYAPCRSQDIDADGQGFCQGGFSIDFTKADRVLLGGPGSFYWQGQLISDQVAEIVSKYDPNVYSIKYNNQLATRTAQAIFDDSYLGYSVAVGDFNGDGIDDFVSGVPRAARTLGMVYIYDGKNMSSLYNFTGEQMAAYFGFSVAATDINGDDYADVFIGAPLFMDRGSDGKLQEVGQVSVSLQRASGDFQTTKLNGFEVFARFGSAIAPLGDLDQDGFNDIAIAAPYGGEDKKGIVYIFNGRSTGLNAVPSQILEGQWAARSMPPSFGYSMKGATDIDKNGYPDLIVGAFGVDRAILYRARPVITVNAGLEVYPSILNQDNKTCSLPGTALKVSCFNVRFCLKADGKGVLPRKLNFQVELLLDKLKQKGAIRRALFLYSRSPSHSKNMTISRGGLMQCEELIAYLRDESEFRDKLTPITIFMEYRLDYRTAADTTGLQPILNQFTPANISRQAHILLDCGEDNVCKPKLEVSVDSDQKKIYIGDDNPLTLIVKAQNQGEGAYEAELIVSIPLQADFIGVVRNNEALARLSCAFKTENQTRQVVCDLGNPMKAGTQLLAGLRFSVHQQSEMDTSVKFDLQIQSSNLFDKVSPVVSHKVDLAVLAAVEIRGVSSPDHVFLPIPNWEHKENPETEEDVGPVVQHIYELRNNGPSSFSKAMLHLQWPYKYNNNTLLYILHYDIDGPMNCTSDMEINPLRIKISSLQTTEKNDTVAGQGERDHLITKRDLALSEGDIHTLGCGVAQCLKIVCQVGRLDRGKSAILYVKSLLWTETFMNKENQNHSYSLKSSASFNVIEFPYKNLPIEDITNSTLVTTNVTWGIQPAPMPV chain 2: GPNICTTRGVSSCQQCLAVSPMCAWCSDEALPLGSPRCDLKENLLKDNCAPESIEFPVSEARVLEDRPLSDKGSGDSSQVTQVSPQRIALRLRPDDSKNFSIQVRQVEDYPVDIYYLMDLSYSMKDDLWSIQNLGTKLATQMRKLTSNLRIGFGAFVDKPVSPYMYISPPEALENPCYDMKTTCLPMFGYKHVLTLTDQVTRFNEEVKKQSVSRNRDAPEGGFDAIMQATVCDEKIGWRNDASHLLVFTTDAKTHIALDGRLAGIVQPNDGQCHVGSDNHYSASTTMDYPSLGLMTEKLSQKNINLIFAVTENVVNLYQNYSELIPGTTVGVLSMDSSNVLQLIVDAYGKIRSKVELEVRDLPEELSLSFNATCLNNEVIPGLKSCMGLKIGDTVSFSIEAKVRGCPQEKEKSFTIKPVGFKDSLIVQVTFDCDCACQAQAEPNSHRCNNGNGTFECGVCRCGPGWLGSQCECSEEDYRPSQQDECSPREGQPVCSQRGECLCGQCVCHSSDFGKITGKYCECDDFSCVRYKGEMCSGHGQCSCGDCLCDSDWTGYYCNCTTRTDTCMSSNGLLCSGRGKCECGSCVCIQPGSYGDTCEKCPTCPDACTFKKECVECKKFDRGALHDENTCNRYCRDEIESVKELKDTGKDAVNCTYKNEDDCVVRFQYYEDSSGKSILYVVEEPECPKGPD chain 3: ESIRETEVIDPQDLLEGRYFSGALPDDEDVVGPGQESDDFELSGSGDLDDLEDSMIGPEVVHPLVPLDNHIPERAGSGSQVPTEPKKLEENEVIPKRISPVEESEDVSNKVSMSSTVQGSNIFERTE	11.6 ± 1.34	–
